Biological target: T1, Interferon type I receptors on HeLa cells (UniProt P17181 28-557; P48551 27-515, limits assumed)
T1 sequence (looked up) 1: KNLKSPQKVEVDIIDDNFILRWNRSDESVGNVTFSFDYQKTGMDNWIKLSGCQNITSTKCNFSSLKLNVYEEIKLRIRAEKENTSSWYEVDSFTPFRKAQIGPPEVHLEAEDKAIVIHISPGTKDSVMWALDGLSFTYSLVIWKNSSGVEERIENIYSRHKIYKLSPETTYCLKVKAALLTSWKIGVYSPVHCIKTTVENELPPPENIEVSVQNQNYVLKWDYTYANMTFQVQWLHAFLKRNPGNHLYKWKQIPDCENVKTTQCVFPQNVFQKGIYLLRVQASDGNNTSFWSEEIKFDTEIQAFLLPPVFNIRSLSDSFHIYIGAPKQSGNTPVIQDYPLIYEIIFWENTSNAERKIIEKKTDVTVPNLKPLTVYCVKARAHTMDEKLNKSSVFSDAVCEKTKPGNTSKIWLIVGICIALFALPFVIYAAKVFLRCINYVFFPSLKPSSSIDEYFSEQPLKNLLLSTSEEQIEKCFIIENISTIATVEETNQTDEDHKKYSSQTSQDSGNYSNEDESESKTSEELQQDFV
T1 sequence (looked up) 2: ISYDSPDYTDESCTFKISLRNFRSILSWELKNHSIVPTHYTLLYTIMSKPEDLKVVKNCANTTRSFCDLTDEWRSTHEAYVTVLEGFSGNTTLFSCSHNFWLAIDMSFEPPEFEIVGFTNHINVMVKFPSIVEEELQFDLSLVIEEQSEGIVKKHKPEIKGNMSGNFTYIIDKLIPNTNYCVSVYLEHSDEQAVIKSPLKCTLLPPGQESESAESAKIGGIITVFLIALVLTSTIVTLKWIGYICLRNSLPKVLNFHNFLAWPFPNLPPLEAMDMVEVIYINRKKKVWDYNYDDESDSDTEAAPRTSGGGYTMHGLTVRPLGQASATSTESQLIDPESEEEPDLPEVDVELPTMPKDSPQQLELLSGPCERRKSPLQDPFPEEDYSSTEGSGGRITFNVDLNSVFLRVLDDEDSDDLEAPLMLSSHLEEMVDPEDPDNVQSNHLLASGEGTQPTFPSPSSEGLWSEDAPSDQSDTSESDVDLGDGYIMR
Test: cell-based or functional assay

- specific activity relative to wild-type human IFNB (primary assay): ~2 fold of wild-type human IFNB
B1: [F111N+R113T] human IFNB variant (ligand)
chain: MSYNLLGFLQRSSNFQCQKLLWQLNGRLEYCLKDRMNFDIPEEIKQLQQFQKEDAALTIYEMLQNIFAIFRQDSSSTGWNETIVENLLANVYHQINHLKTVLEEKLEKEDNTTGKLMSSLHLKRYYGRILHYLKAKEYSHCAWTIVRVEILRNFYFINRLTGYLRN
modifications: introduced in vivo N-glycosylation site at position 111
